T1: GST-VIP1ΔN164 (Arabidopsis thaliana, UniProt Q9MA75 165-341)
T1 sequence: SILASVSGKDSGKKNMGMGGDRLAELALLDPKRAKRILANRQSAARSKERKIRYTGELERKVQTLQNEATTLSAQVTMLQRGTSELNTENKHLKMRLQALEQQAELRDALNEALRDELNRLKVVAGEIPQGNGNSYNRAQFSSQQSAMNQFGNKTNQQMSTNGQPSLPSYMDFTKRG


Tests used:
GST-VIP1ΔN164 [1] = target: T1, GST-VIP1ΔN164; assay: competition; EMSA, CYP707A1 probe, competitor 0.5 µM; Gel shift with DIG-labeled probes as in cited ref. 17; competitors 0.5 µM unless stated; binding buffer, pH and temperature not given; settings: protein: recombinant; tags: N-terminal GST; chain copies: 2; blunt
GST-VIP1ΔN164 [2] = target: T1, GST-VIP1ΔN164; assay: competition; EMSA, CYP707A1 probe; inhibits to same extent as A1; Gel shift with DIG-labeled probes as in cited ref. 17; competitors 0.5 µM unless stated; binding buffer, pH and temperature not given; settings: protein: recombinant; tags: N-terminal GST; chain copies: 2; blunt

| Binder | binding result (GST-VIP1ΔN164 [1]) | binding result (GST-VIP1ΔN164 [2]) |
| --- | --- | --- |
| A1 (dsDNA) DNA 1: CTCTCAAATGAGCTGTCTCTC DNA 2: GAGAGACAGCTCATTTGAGAG | binds | – |
| A3 (dsDNA) DNA 1: CTCTCAAATTAGCTGGCTCCA DNA 2: TGGAGCCAGCTAATTTGAGAG | – | binds |
